Experimental data reported in US20220396822A1, “Method for Measuring Pentosidine and Measurement Kit” (Kikkoman Corporation, priority 2019, published 2022).

How the values were obtained:
Type in all cases: biochemical
[1] = Pentosidine quantification test (DA-67/peroxidase, A658); conditions: 37° C., pH 7.0
Description: The following reagents were prepared, and pentosidine was measured using Bio Majesty JCA-BM1650 (manufactured by JEOL Ltd.).
0.2 μM, 0.4 μM, 0.6 μM, 1.0 μM, 2.0 μM or 4.0 μM pentosidine solution (prepared using the same pentosidine as in Example 2)
120 mM potassium phosphate buffer (pH 7.0)
0.2 mM DA-67 (10-(carboxymethylaminocarbonyl)-3,7-bis(dimethylamino)phenothiazine, sodium salt) (manufactured by FUJIFILM Wako Pure Chemical Corp.)
25 μL of each sample was added to 50 μL of the first reagent, and the mixture was incubated at 37° C. for 5 minutes. Then, 25 μL of the second reagent was added thereto, and pentosidine oxidation reaction mediated by PenOX2 and reaction for the detection of hydrogen peroxide produced through the reaction were allowed to proceed at 37° C. for 5 minutes.
In the reaction for the detection of hydrogen peroxide, DA-67 was oxidized, with concomitant consumption of […], into methylene blue which in turn developed color while absorbance (A658) was elevated. […] Elevation in A658 was able to be confirmed immediately after addition of the second reagent containing PenOX2.
Subsequently, the amount of elevation in A658 (ΔA) caused by the oxidation of pentosidine was calculated according to the following expression.
ΔA=(Absorbance 5 minutes after addition of the second reagent)−(Absorbance immediately before addition of the second reagent×0.75)

[2] = Substrate specificity analysis of amino acid degrading enzymes (reaction rate, A555); conditions: room temperature, pH 6.8, amino acids 4 mM, pentosidine 2 mM solutions
Description: The amino acid eliminating enzyme 1 liquid obtained in Example 12 was diluted to 0.134 U/ml with a 0.1 M potassium phosphate buffer (pH 6.8).
Pentosidine (which was the same as in Example 12) was dissolved at 2 mM in deionized water. Various amino acids were each dissolved at 4 mM in deionized water.
Peroxidase (manufactured by Toyobo Co., Ltd.) (3.99 U/ml), 4-aminoantipyrine (manufactured by Fluka/Honeywell International Inc.) (1.8 mM), and TOOS (manufactured by Dojindo Laboratories Co., Ltd.) (2 mM) were dissolved in deionized water.
Every measurement was performed at room temperature unless otherwise specified. A 96-well microwell plate (manufactured by Nunc/Thermo Fisher Scientific, Inc.) was used in reaction.
25 μl of each amino acid solution or the pentosidine solution of (2) and 25 μl of the coloring reagent of (3) were added in order to 50 μl of the enzyme liquid of (1). At the start and ten minutes later, absorbance at 555 nm was measured. A slope of elevation in absorbance was regarded as a reaction rate for the target substrate. […]
Every measurement was performed at room temperature unless otherwise specified. […] At the start and ten minutes later, absorbance at 555 nm was measured. A slope of elevation in absorbance was regarded as a reaction rate for the target substrate.

[3] = Method for measuring enzymatic activity (pentosidine oxidase activity, A555), Examples 9 and 10; conditions: 37° C., pH 7.5; 1 mg enzyme powder in 1 mL deionized water
Description: The amount of the enzyme that produced 1 μmol of hydrogen peroxide per minute at 37° C. was defined as 1 unit (U). The activity was calculated according to the following expression.
Each buffer was prepared as a 50 mM (final concentration) citric acid-100 mM potassium phosphate buffer (pH 4.0 to 7.5), a 100 mM (final concentration) potassium phosphate buffer (pH 6.5 to 8.0), and a 100 mM (final concentration) glycine buffer (pH 8.0 to 11.0). Enzyme reaction was performed at each pH at a temperature of 37° C. using these buffers. […] It was therefore concluded that the optimum pH of PenOX2 is pH 6.5 to 8.0 and is most preferably pH 7.5.
The activity of PenOX2 was measured at varying temperatures using a 50 mM (final concentration) potassium phosphate buffer (pH 7.5). […] It was thus concluded that the range of the optimum temperature of PenOX2 is from 37° C. to 50° C.
As mentioned above, both PenOX1 and PenOX2 had pentosidine oxidase activity. When the percent match between their amino acid sequences was examined using the BLAST program, the amino acid sequence homology therebetween was 38.2%. […] The amino acid sequence homology to PenOX1 and PenOX2 and pentosidine oxidase activity of each enzyme were as follows.

Row | Molecule | substrate having the highest reaction rate [2] | specific activity (pentosidine oxidase) as a reference value [3] | further results
1 | PenOX1: protein having the amino acid sequence of SEQ ID NO: 2, pentosidine oxidase from a filamentous fungus of the genus Sarocladium (protein, listed as Sarocladium sp.) MKSPSLAVAGLLLGSSSLSHATQLRIETRKSLNSRIANVHIDVDAPVAHQVVFTYGPCDSESQENAHHVIAQSQKLEGRKPHRLIWTMPKDLHPDDCISAWGESGDLLGRSVPQKVAHKEMRRRKRDDSDYSIPMNSSSGIDVYGPWFDGVALLEKSDNHNVDVEAAKAKEIAIVGAGMAGLTTYFILSEAGLSNLTILEASGRLGGRVRTEYLSGGPRDHSYAEMGPMRIPYQARFGDKAYNISDQAIFFRLVEKVNERNKKLGNTKDLINLIPFIQSSPNGLAYYQGNKLENGLPPTQADVAADPALGNESPEIPESAQELAAQLQRALPNAEFLELMATNFWQAHAEFLENQGPAGLPGDQWSEFAFLVNYLNATVFDANAVTGGYDWHSSLDRSSLVGMNLLPNAFHPLVDDITKFNAKVEKVQLDEKTSRLKLHWRANYTDPELESQSFDYAILSPTMPAVQKLRLPGLPFAMRNAVDSMPYASACKVALEYRTRFWEKFDNPIYGSCSTSTDIPGIGSVCYPSSNINGSGPASLLASYEIGRPYGAEWAGIPEEQHVQYVIDAMIDIHGEVARREFTGKCKRKCWALDEFSNGGWASPTVGNHETYLPSFFETHSHMIFVGEHTSYTHAWIASAIESAVRGSVQLLLELGLIDEAKDVVNTWMARWISVVSDLSKAVVSGASA | – | – | pentosidine oxidizing activity [1]: exhibited pentosidine oxidizing activity
2 | amino acid degrading enzyme 1: mature escapin derived from Aplysia californica (SEQ ID NO: 15) expressed in Aspergillus sojae (protein, listed as Aplysia californica) DGVCRNRRQCNKEVCGSSYDVAIVGAGPGGANSAYMLRESGLDIAVFEYSDRVGGRLFTYQLPNTPDVNLEIGGMRFIEGAMHRLWKVISELGLTPKVFKEGFGKEGRQRFYLRGQSLTKKQVKSGDVPYDLSPEEKANQGRLVEYYLEKLTGLQLNGGPLKREVALKLTVPDGRFLYDLTFDEALDLVASPEGKEFARDTHVFTSEVTLDASAISIFDDHLGEDYYGSEIYTLEEGMSSVPQGLLQTFLDAAKSNEFFPNNHLKALRRRTNGQYVLYFEPTTSKDGQTTINYLEPLKVVCAQRVILAMPVYALRQLDWSQLRNDRATQAYRAVRPMPASKVFMTFDQPWWLQNERKSWVTKSDALFSQMYDWQKSEASGDYILIASYADGLKAQYLRELKNQGEDIPGSDPGYNQVTVPLKDAILEHLTEAYGVERDSIPEPVTAASQFWTDYPFGCGWITWRAGYHFDDVISTMRRPSLKDEVYVVGSDYSWGLISSWIEGALETSENVINDYFL | arginine | – | –
3 | Trichoderma viride-Derived Lysine Oxidase: purchased enzyme manufactured by Merck KGaA, SEQ ID NO: 14 (protein, Trichoderma viride) MDNVDFAESVRTRWARRLIREKVAKELNILTERLGEVPGIPPPREGRFLGGGYSHDNLPSDPLYSSIKPALLKEAPRAEEELPPRKVCIVGAGVSGLYIAMILDDLKIPNLTYDIFESSSRTGGRLYTHHFTDAKHDYYDIGAMRYPDIPSMKRTFNLFKRTGMPLIKYYLDGENTPQLYNNHFFAKGVVDPYMVSVANGGTVPDDVVDSVGEKLQQAFGYYKEKLAEDFDKGFDELMLVDDMTTREYLKRGGPKGEAPKYDFFAIQWMETQNTGTNLFDQAFSESVIDSFDFDNPTKPEWYCIEGGTSLLVDAMKETLVHKVQNNKRVEAISIDLDAPDDGNMSVKIGGKDYSGYSTVFNTTALGCLDRMDLRGLNLHPTQADAIRCLHYDNSTKVALKFSYPWWIKDCGITCGGAASTDLPLRTCVYPSYNLGDTGEAVLLASYTWSQDATRIGSLVKDAPPQPPKEDELVELILQNLARLHAEHMTYEKIKEAYTGVYHAYCWANDPNVGGAFALFGPGQFSNLYPYLMRPAAGGKFHIVGEASSVHHAWIIGSLESAYTAVYQFLYKYKMWDYLRLLLERWQYGLQELETGKHGTAHLQFILGSLPKEYQVKIV | – | 0.063 U/mg | –
4 | Crotalus Atrox-Derived Amino Acid Oxidase Type I: purchased enzyme manufactured by Merck KGaA, SEQ ID NO: 13 (protein, Crotalus atrox) AHDRNPLEECFRETDYEEFLEIAKNGLTATSNPKRVVIVGAGMAGLSAAYVLAGAGHQVTVLEASERVGGRVRTYRKKDWYANLGPMRLPTKHRIVREYIKKFDLKLNEFSQENENAWYFIKNIRKRVREVKNNPGLLEYPVKPSEEGKSAAQLYVESLRKVVEELRSTNCKYILDKYDTYSTKEYLLKEGNLSPGAVDMIGDLLNEDSGYYVSFIESLKHDDIFGYEKRFDEIVGGMDQLPTSMYEAIKEKVQVHFNARVIEIQQNDREATVTYQTSANEMSSVTADYVIVCTTSRAARRIKFEPPLPPKKAHALRSVHYRSGTKIFLTCTKKFWEDDGIHGGKSTTDLPSRFIYYPNHNFTSGVGVIIAYGIGDDANFFQALDFKDCADIVINDLSLIHELPKEDIQTFCHPSMIQRWSLDKYAMGGITTFTPYQFQHFSEALTAPFKRIYFAGEYTAQFHGWIDSTIKSGLTAARDVNRASENPSGIHLSNDNEF | – | 0.022 U/mg | –
5 | amino acid eliminating enzyme 2: Crotalus adamanteus-derived L-amino acid oxidase Type I, manufactured by Merck KGaA (SEQ ID NO: 19) (protein, listed as Crotalus adamanteus) AHDRNPLEECFRETDYEEFLEIAKNGLTATSNPKRVVIVGAGMAGLSAAYVLAGAGHQVTVLEASERVGGRVRTYRKKDWYANLGPMRLPTKHRIVREYIKKFDLKLNEFSQENENAWYFIKNIRKRVREVKNNPGLLEYPVKPSEEGKSAAQLYVESLRKVVEELRSTNCKYILDKYDTYSTKEYLLKEGNLSPGAVDMIGDLLNEDSGYYVSFIESLKHDDIFGYEKRFDEIVGGMDQLPTSMYEAIKEKVQVHFNARVIEIQQNDREATVTYQTSANEMSSVTADYVIVCTTSRAARRIKFEPPLPPKKAHALRSVHYRSGTKIFLTCTKKFWEDDGIHGGKSTTDLPSRFIYYPNHNFTSGVGVIIAYGIGDDANFFQALDFKDCADIVINDLSLIHELPKEDIQTFCHPSMIQRWSLDKYAMGGITTFTPYQFQHFSEALTAPFKRIYFAGEYTAQFHGWIDSTIKSGLTAARDVNRASENPSGIHLSNDNEF | leucine | – | –
